Test [1] concerns the target FLAG-AP-DHX15 wild type (human) (UniProt O43143). Put plainly: proximity labelling.
Test [2] shares this target. Put plainly: split reporter.

Sequence of FLAG-AP-DHX15 wild type (human) (O43143 whole entry): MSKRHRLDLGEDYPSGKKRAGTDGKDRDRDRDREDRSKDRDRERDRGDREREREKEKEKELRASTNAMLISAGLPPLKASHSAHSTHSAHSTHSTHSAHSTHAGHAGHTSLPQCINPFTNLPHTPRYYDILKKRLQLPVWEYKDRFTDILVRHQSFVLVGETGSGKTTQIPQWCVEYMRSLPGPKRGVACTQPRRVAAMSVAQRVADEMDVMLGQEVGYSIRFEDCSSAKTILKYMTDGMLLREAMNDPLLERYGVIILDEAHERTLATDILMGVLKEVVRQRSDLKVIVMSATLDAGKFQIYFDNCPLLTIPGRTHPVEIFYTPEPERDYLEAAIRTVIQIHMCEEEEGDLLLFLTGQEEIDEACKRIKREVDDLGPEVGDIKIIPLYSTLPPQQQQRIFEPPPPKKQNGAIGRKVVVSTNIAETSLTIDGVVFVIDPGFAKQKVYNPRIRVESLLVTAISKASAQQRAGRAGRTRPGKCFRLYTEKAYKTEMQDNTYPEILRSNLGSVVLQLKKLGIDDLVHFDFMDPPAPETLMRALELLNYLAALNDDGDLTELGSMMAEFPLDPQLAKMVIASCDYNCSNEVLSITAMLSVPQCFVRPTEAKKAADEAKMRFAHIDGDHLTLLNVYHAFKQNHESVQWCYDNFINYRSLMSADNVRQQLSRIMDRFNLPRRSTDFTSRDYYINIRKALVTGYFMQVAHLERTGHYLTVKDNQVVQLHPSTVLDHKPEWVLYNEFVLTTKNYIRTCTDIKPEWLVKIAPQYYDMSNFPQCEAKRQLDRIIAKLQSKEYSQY

In test [1], “HA-SUGP1-EX with the G-patch domain deleted (ΔGp) (from UniProt Q8IWZ8 1-645) (natural protein)” gave a fold increase of HA-SUGP1-EX pull-down of 1.9 fold.

In test [2], “SUGP1 G-patch domain alone fused to an SV40 NLS (Gp-nls), HA-EX construct (domain or fragment)” gave a fold increase of total biotinylated protein against FL SUGP1 of 3.2 fold.

These data come from PMC10842378.
